Assay results taken from article PMC12724371 (Journal of Virology, 2025).

What was measured:
Experiment in all cases: BLI
Conditions in all cases: both partners purified
[1] = target: T1, SARS-CoV spike S2 subunit (SARS-CoV, strain  (entry …, UniProt P59594))
T1 construct: source: bought: Sino Biological

[2] = target: T2, SARS-CoV-2 spike S2 subunit (SARS-CoV-2, Wuhan-Hu-1 reference, UniProt P0DTC2)
T2 construct: source: bought: Sino Biological

MERS spike S2 subunit = target: T3, MERS spike S2 subunit (MERS-CoV, strain  (entry: …, UniProt K9N5Q8))
T3 construct: source: bought: Sino Biological

[3] = target: SARS-CoV full-length spike protein (SARS-CoV, strain  (entry …, UniProt P59594))
[4] = target: RatG13 full-length spike protein (Bat coronavirus RaTG13, UniProt A0ABF7PLN6)
[5] = target: MERS full-length spike protein (MERS-CoV, strain  (entry: …, UniProt K9N5Q8))
[6] = target: T4, HKU-1 full-length spike protein (HCoV-HKU1, UniProt Q0ZME7)
T4 construct: also called HKU1 SP; HCoV-HKU1 full-length SP; source: bought: Sino Biological

[7] = target: T5, OC-43 full-length spike protein (HCoV-OC43, UniProt P36334)
T5 construct: source: bought: Sino Biological

Measured: binding result

T3 sequence (K9N5Q8 whole entry, looked up): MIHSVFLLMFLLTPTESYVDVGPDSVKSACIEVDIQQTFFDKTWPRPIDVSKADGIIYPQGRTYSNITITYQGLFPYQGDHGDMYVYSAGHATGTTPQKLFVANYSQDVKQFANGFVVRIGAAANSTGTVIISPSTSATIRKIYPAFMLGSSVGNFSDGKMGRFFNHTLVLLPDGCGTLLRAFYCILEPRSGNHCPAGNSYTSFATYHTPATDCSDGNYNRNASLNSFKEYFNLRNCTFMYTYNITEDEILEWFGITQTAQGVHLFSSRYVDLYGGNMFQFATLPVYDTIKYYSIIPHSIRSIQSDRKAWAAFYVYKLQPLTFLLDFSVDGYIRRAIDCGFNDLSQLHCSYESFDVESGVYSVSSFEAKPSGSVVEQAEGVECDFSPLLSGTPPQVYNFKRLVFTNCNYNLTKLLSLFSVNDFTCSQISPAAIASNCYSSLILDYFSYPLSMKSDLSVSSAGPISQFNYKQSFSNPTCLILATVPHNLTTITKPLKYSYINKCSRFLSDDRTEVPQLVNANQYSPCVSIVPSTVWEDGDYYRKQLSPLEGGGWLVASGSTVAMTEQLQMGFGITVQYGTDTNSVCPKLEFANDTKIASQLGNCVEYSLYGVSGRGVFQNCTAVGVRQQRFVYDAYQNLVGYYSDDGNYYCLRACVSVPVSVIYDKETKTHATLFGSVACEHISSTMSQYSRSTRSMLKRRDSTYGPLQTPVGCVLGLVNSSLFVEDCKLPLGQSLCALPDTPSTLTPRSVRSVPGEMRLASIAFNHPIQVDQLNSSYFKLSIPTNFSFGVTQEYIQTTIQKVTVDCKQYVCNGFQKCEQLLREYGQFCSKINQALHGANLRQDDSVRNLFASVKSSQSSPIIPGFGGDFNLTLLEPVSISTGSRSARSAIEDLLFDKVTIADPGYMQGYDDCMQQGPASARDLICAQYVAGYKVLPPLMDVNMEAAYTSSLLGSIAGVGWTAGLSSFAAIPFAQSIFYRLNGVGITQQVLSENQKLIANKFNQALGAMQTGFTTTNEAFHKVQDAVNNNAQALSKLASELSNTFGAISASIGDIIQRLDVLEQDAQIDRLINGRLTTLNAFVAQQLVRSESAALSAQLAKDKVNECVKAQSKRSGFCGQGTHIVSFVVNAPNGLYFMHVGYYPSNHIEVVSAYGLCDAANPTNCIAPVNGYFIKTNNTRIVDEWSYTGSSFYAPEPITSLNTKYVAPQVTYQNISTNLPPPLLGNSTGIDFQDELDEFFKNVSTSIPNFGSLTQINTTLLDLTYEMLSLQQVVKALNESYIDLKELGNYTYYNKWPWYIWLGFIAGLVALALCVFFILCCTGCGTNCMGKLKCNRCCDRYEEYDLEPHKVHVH
Sequence of MERS full-length spike protein (MERS-CoV, strain  (K9N5Q8 18-1353): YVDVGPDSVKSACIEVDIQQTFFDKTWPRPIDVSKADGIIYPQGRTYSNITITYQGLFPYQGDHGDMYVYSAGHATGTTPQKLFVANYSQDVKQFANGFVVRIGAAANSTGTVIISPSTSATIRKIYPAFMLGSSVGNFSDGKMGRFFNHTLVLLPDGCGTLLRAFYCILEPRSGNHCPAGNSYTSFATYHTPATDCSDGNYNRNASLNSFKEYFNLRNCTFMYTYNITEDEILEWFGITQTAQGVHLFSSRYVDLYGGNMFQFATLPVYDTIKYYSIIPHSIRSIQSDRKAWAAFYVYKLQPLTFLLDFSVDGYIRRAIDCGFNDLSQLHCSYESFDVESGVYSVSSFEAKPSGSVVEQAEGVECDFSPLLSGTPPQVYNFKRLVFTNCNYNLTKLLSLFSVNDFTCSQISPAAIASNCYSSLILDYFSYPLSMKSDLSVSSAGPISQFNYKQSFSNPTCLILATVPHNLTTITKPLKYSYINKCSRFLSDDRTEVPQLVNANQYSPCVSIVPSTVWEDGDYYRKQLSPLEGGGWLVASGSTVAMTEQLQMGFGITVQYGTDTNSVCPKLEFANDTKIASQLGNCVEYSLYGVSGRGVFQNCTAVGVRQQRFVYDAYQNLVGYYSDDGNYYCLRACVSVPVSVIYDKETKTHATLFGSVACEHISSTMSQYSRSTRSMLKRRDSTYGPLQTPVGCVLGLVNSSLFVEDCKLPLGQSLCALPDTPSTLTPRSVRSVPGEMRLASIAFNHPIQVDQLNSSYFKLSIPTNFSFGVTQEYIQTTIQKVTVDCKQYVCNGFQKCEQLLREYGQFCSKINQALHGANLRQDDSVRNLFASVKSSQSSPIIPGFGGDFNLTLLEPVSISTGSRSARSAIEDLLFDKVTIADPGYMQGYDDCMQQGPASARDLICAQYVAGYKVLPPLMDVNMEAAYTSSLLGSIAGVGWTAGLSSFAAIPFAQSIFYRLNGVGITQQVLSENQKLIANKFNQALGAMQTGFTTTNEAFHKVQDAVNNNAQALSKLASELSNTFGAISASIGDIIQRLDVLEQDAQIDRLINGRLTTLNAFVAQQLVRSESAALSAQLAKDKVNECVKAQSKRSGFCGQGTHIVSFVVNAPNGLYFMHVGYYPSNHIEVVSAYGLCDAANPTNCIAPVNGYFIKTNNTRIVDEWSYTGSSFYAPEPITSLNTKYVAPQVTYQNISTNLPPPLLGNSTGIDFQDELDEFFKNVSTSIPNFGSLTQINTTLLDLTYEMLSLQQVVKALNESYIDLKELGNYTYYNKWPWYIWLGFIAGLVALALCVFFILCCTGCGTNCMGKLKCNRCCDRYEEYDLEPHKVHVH
T4 sequence (Q0ZME7 13-1351): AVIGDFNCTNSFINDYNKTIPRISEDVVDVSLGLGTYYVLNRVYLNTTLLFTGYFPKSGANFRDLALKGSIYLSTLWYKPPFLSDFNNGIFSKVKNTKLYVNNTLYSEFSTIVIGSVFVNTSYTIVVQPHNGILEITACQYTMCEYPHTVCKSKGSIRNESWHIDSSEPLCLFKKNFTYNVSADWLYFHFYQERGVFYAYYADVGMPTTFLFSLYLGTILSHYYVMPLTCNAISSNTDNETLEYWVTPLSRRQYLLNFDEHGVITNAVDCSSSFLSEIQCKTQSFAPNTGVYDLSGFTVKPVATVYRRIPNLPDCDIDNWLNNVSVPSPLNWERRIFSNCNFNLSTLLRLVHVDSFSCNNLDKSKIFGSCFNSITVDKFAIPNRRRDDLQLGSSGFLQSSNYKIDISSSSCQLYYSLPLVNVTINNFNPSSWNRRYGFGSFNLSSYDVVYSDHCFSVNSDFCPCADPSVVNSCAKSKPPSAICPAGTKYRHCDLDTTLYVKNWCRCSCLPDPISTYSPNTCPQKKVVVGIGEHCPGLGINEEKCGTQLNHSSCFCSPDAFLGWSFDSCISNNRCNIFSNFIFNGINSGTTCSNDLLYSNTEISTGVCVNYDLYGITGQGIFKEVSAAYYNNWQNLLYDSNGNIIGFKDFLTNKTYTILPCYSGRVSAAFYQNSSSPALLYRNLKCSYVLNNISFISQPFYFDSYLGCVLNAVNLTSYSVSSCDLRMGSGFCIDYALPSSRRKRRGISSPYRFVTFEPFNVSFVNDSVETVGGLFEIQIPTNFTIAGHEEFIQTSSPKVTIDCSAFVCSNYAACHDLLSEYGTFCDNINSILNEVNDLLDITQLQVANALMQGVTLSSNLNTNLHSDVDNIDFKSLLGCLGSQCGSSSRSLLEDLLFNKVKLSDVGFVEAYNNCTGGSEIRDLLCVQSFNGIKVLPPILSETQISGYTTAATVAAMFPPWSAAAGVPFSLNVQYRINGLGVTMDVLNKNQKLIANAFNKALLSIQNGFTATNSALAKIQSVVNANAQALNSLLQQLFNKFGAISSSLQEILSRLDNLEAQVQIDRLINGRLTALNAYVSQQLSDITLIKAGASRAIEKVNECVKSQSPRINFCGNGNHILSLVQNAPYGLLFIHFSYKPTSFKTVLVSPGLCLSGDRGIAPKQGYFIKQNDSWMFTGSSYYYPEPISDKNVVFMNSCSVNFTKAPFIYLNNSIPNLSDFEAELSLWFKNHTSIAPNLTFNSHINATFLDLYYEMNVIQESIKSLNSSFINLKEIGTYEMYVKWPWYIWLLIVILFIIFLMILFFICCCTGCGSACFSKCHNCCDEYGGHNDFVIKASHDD

B1: mAb 1871 IgG1 (wild-type human IgG1 Fc) (antibody, V domains shown)
VH: EVQLVESGGGLVKPGGSLRLSCVASGFSFSIYSMNWVRQAPGKGLEWVSYISSSSSYKYYADSVKGRFSVSRDNAKNSLYLQLNGLRAEDTAVYYCARDGYCPKGVCTYYGMDVWGQGTTVTVSA
VL: EIVMTQSPATLSVSPGERVTLSCRASQSVRSRLAWFQQKPGQAPRLLIYDASIRATGIPARFSGSGSGTEFTLIISSLQSEDFAVYYCQQYDNWPPAYTFGQGTKLEIK
notes: also called ADPT01871; source: HEK-293F, transiently transfected, purified (protein A, SEC Superdex200)
binds: all assays above
